Drawing on a protein production outcome set (Wang et al. 2014), this text covers protein production for 18 sequences.

The nature of the data set: label from the status in PepcDB records.
Consider “MRTLLITGPGGSGRTTVAAATALRASRTGTRTLVLSADRTDTLGAALGVPTGGAPVEAAPGLTAWRPDAADRFRADLTAFQDRAATALDFLGAARLDAEELTPLPGAEELALLRALRDAALSEAYDLLVVDLPPAPQALALLALPEELRRYLRRLLPPERQAARALRPVLGRLAGVPMPADWLYETAARWDVELAAVEAVVEDRATTVRLVAEPGPAGADAVRAAATGFALRAVRIDTLIANRLLPEEADDAWSAGLAAQQRKFLEEWRGEYRLHELPHLGHDPRGADDLAALAVPGVNDAPGPVEWSVADRLADDGVLVWHIPLPGAIRDELDLLRRGDELVVTAGQFRRIVPLPSALRRCTVAGAALREGELRIRFAPDPDLWPRERLEHHHHHH”, for which the protein production entry is “not failed”. As for “MRTLRSLMLAAALAVALAVTGFAASPLPSAYAKYAAGPTKILPLQRAFPLDELVELSELRARDRVRHARILLGGGRQSSVGGVVDFPVQGSSDPYLVGLYFTKVKLGSPPTEFNVQIDTGSDILWVTCSSCSNCPHSSGLGIDLHFFDAPGSLTAGSVTCSDPICSSVFQTTAAQCSENNQCGYSFRYGDGSGTSGYYMTDTFYFDAILGESLVANSSAPIVFGCSTYQSGDLTKSDKAVDGIFGFGKGKLSVVSQLSSRGITPPVFSHCLKGDGSGGGVFVLGEILVPGMVYSPLVPSQPHYNLNLLSIGVNGQMLPLDAAVFEASNTRGTIVDTGTTLTYLVKEAYDLFLNAISNSVSQLVTPIISNGEQCYLVSTSISDMFPSVSLNFAGGASMMLRPQDYLFHYGIYDGASMWCIGFQKAPEEQTILGDLVLKDKVFVYDLARQRIGWASYDCKCNHRVMSYRKL”, the entry is “failed”; as for “MRTMPDKPDTWARIVAAISNPLWQGMIMAIVVSLLRILYDAKETSKRRILFEALICGSLSLVASSLIEWMTWPPSLSVAAGGTIGFLGVTAIRELVARFIGRKVDSL”, “failed”; as for “MRTPTTILLLVGAILFSGAGYVRSDASDHRYKEGDTVPLYANKVGPFHNPSETYRYFDLPFCIPEGVKEKKEALGEVLNGDRLVSAPYKLNFRDEKESEVYCNKKLSKEEVKQFRKAVEKDYYFQMYYDDLPIWGFIGKVDKDIKSDPSEFKYFLYKHIQFEILYNKDRVIEISARMDPHSLVDLTEDKEVDAEFMYTVKWKETETPFEKRMEKYSMSSSLPHHLEIHWFSIINSCVTVLLLTGFLATILMRVLKNDFMKYAQDEEAADDQEETGWKYIHGDVFRFPTHNSLFAASLGSGTQLFTLTIFIFMLALVGVFYPYNRGALFTALVVIYALTSGIAGYTSASFYCQLEGKSWVRNLLLTGCLFCGPLFLTFCFLNTVAITYTATAALPFGTIVVIVLIWTLVTSPLLVLGGIAGKNSKAEFQAPCRTTKYPREIPPLPWYRSAIPQMAMAGFLPFSAIYIELYYIFASVWGHRIYTIYSILFIVFIILIIVTAFITVALTYFQLAAEDHQWWWRSFLCGGSTGLFIYAYCLYYYYARSDMSGFMQTSFFFGYMACICYGFFLMLGTVGFRAALLFVRHIYRSIKCE”, “failed”.

With “MRTRWLPRGRGLGSASARLRSAVAGRGTVRAELGYGAFLSYSGERDRRWLPQLRHAIEKQSRPWYKPPHIRVFLDKTGVSIGPELWGKIEAGLARSDWLVVLASPEARASVWVDREIAWWLEHKSVHTILLVVTAGQLVWDEERGDWDPERSTALPARLAGKFERQPVWKSVDPRPDGDAVFSTDDAGFSPDVDGVAFGVASVVRGLSEDELRSEGLRDTRRNLRTARIVATALGCLLLVASTLSVVAVLSRAEATRQRDQAVVQQLITQSSLLAERDPFAARLKALAAWRIDPSPETRFAVLDAAVNPASGVLSHSVPVDSVAFSPDGRTVASGGSDGVVRIWRTGTQRTAGRPLIGHHQGITSIAFAPDGRTLASSGFDGTVRLWDLADRTQIGAPFNAGAGSVRSVAFGRDGRTLVTVDEADSGTVRVWDVATHRQTGHPLDGPGPVLGTNADGSRVGSSTSQGGIRLWDTASGAPAGGALKGGDGVVTALSFSSDGKTFATADLVGNLRLWDIEARAPVGEPIASPATSTGVRAITFSPDGAMLAAAYEGGGVRLWDLRRRAQVGGPLLAHTSTVESVAFSPDGSVLASASADTTVRLWDVRTLRQAGAPIDTGGKGAAALSPDGRSLAVVDSEQAVRLWDVVARRRVGEPLVRGVYSFSPSLAFRADGAVLAIGADGLRLREVATRRPVGEPLLGTGDVGALSFGPDGRTLVSGGPDSVHVWDLTARPPTGTALGPRSVGVALSPDGRSLATTTQDDTVVFWDMATRRRIGETPGDHTAQITAVAWSPDGTTLATAGRDDTVRLWDAATRERIGAPLRGHHGGLTSVVFSPDGATLATGGNDHTVRLWDVATERPIGAPLEGHGAGVTGVAFTPGGDTLVSWAQDGTARLWNVAATVDPVRSLCAWADGAFTTDRWHEDVPAGPASRTLCRK”, the protein production result is recorded as “failed”. As for “MRTSGGQMNISSATLANTQRTIDSYEGCADDYSRIVDQFPWPSLEAALRQVATAAGKGGQILEIGSGAGWDADFLETQGVSVRRTDATRRFLELQAARGKKGELLNVITDDLGGPYDAVVALCVLIHAPRDQTGPVLEKIVAALRPGGVFLVSMRDGDGETSGAYHMSYWRRDDFALCIKEAGLALEWDAHRVNRDGDGWHTFYARRPE”, the entry is “failed”; as for “MRTSRVLAGILAATLTVSLAACSQDSSETSSNSSSAASQSSDVSNEAFPVTIEHAFGETTIESKPERIATVGWSNHEVPLALGVTPVGFEKVTWGDDDNNGILPWVEETLSKLGSDEPVLFDATDSIPFEEIANTAPDVILASYSGITQEDYDQLSQIAPVVAYPEIAWGTSLDEMIEMNSKAIGLEQEGKDLIADLDAEVASAIDANPELKDAKPVFAFFDESDFSQIGVYTSIDPRMSFLLDAGVQEASVLKEHSSPDSFYEQVSAENPETFDDVDVIITYGTEDDAANAELLSKMQADPLLSRIPAIAEGKVVFLGANPLAASANESPLSIPWGINDYFAKLAEPLK”, “failed”; as for “MRTWKMRKDGQRIDYLGRKWRNLGGPFMEVSRVVTWIIIITLVALAIKTILPFFSPLFFAFITAYALYPLHIKLKERIGSKNSAILLTLFLLLGALMILLILVYTLTPVIGQAYDYLTNLEKIKINIPLVPKSVISSLEGVIDEFIERGKGYLVSLTFSVPKYLLQVIVYLTFVYFFLVKEKEARELITFEDEKLIRIIERGNLTLQALIRVWLLLNIVKGILMTLGFLIFKVSNLPTAILAGLLTVLFSFIPLFEGWMIWLAGAFYLVKQGHIIAGIGLAVYGFTLVSPLPDFTIRPKLVAREAEFNDVLVLIGMIGGTWGLGLKGLIIGPIVLNVAIEMLREWKNVQAKTERS”, “failed”. In the case of “MRTYLVLFSILLVFLAGCISTESKVEDTTTAVTFVSVTDFTGETSTINSPVERVVSNYGLIPPIIYLFGEGDKIVAGRGVMGADEFIDAVDPEFKTRSKDIKSDNVEEIKSLNPDVIFAPSWGSQQGQYPQLKSLGIPVVFIDIETASNYYKTIEMMGEVFQKEAYAQELIDYYNQSTNDVLKRTASISENEKPRVLFLVYDQRKNSYWTPGGEFYQNNLITMAGGKTVSSDLPTGKAQINVEQAASWNPDVIITSAHTMEYPSTKVKEDVLTDEGWKEINAVKSGNVYAMPFDGESWDTLGSKYVLGLYWTAKTLHPDMYTDVDILNLTSSEYERFFNVSIDEVTLVGDNIE” it was “failed”; in that of “MRVALAGRPQEALDVALPAAELPEHLRWRLRSWQADAQEALGQSAEATLLYAEAAHLAAGLNRAVMLQEQAALLLQQGDFEEARQVLERARTLYTGPRPGTDPNDEGLNLATWHYLMAQVRLNLGQPEAAQDDIREAARLEGLSGDPSYGVALVQGQVLSHLGQLEEALEAFGQALARATDPDRPYANHELGVALLDLDRPLEAREKLEEVLLVPDYPFHPEVLADIAECDYRLGRLPEAQLAAEQALNQGAVVPASVVLGNVALDYYHLDDALDHYERVVREAVHGSRDWVLGHQMAADVMAQQGFPDPAAAYAHAQQALEHTPESDDWYVTLQDHLSRAQALMGSAGGRTLN”, “failed”; in that of “MRVALTIAGSDSGGGAGVQADLKVFFRFGVYGTSALTLVTAQNTLGVQRVHLLPPEVVYAQIESVAQDFPLHAAKTGALGDAAIVEAVAEAVRRFGVRPLVVDPVMVAKSGDPLLAKEAAAALKERLFPLADLVTPNRLEAEALLGRPIRTLKEAEEAAKALLALGPKAVLLKGGHLEGEEAVDLLATRGGVLRFSAPRVHTRNTHGTGCTLSAAIAALLAKGRPLAEAVAEAKAYLTRALKTAPSLGHGHGPLDHWA”, “not failed”. For the sequence “MRVASDAGDAETLLAAVPANQRVAIVDARFVGHLHALRLGLTDPRFEAAALAGAVSAQPGARQALTRALARESSAATGGATVVMDNLAERITAALDADGVQVHRPDLGTLVAAVPADPQARNEVRQAVTAVDDEAVRLRTAVKSRDGFFTTHFISPYSRYLARWCARRGLTPNQVTTASLLTALVAAGCAATGTRAGFVAAGLLLLFSFVLDCADGQLARYSLQYSTLGAWLDATFDRAKEYAYYAGLALGAARGGDDVWALALGAMVLQSCRHIVDFSFNEANHDATANTSPTAALSDKLDSVGWTVWLRRMIVLPIGERWAMIAVLTALTTPRITFYALLIGCAFAATYTTAGRVLRSLTRKARRTDRAAQALADLTDSGPLAEFLTRFARRLRLRGPACVALVTGALVVLAAALAPYGSWWPVLAAVTYVLLSPVALLKPLKGALDWLVPPFYRAAEYGTVLVLAAKADVNGALPAAFGLVAAVAYHHYDTVYRIRGNAGAPPHWLVRAIGGHEGRTLLVTVLAALLVPTDFKVALTALAVAVALVVLVESIRFWVSSQAPAVHDEGEPA”, the protein production entry is “failed”. In the case of “MRVDLNSDLGESFGRYKLGLDEEVMKYITSANVACGWHAGDPLVMRKTVRLAKENDVQVGAHPGYPDLMGFGRRYMKLTPEEARNYILYQVGALYAFAKAEGLELQHVKPHGALYNAMVKEEDLARAVIEGILDFDKDLILVTLSNSRVADIAEEMGLKVAHEVFADRAYNPDGTLVPRGRPGAVIEDKEEIAERVISMVKDGGIRAINGEWVDLKVDTICVHGDNPKAVEITSYIRKVLEEEGVKIVPMKEFIR” it was “not failed”; in that of “MRVFFSTLAGLALALAAGGAVASGLGDADKGREVFRQCAFCHAVGEGAENGIGPHLNGVFGRAAGRIEGVQYSKSMIRMGNDGLIWTAQTLDAYIENPRALVSKTRMSFRGIKNEQERSDLMAYLRRYSDDPGNIPEAEPTATGTDHDLDPVILAIQGDPEYGEYLASECKTCHQTSGANDGIPGITQWPTEDFVVAMHAYKRKLRPHPVMQMMAGRLSNDEIAALAAYFQDLE”, “failed”. In the case of “MRVFLLLFLLFPVLELFLLVRVGMSIGFLWTFLLVVATSMLGLFVMRVAGFATALRARESLARGELPAQEMLEGLMVAVGGGLLLLPGFISDILGVICLLPITRRLLISKVRRRAEDQAMRQRAFADDLQTQANQGPASHRPNAIHQPTREPDVIEGEFEHRDK” it was “failed”. Consider “MRVFPVYAPKLIVKHARIFLTGVIWVKDLGRLEFEKGRFLLPRKSLPKVKQAILELNELIEAQNHQTKTALEHHHHHH”, for which the protein production entry is reported as “not failed”. Consider “MRVISGEYGGRRLKALDGDNTRPTTDKVKESIFNMIGPYFDGGMALDLYSGSGGLAIEAVSRGMDKSICIEKNFAALKVIKENIAITKEPEKFEVRKMDANRALEQFYEEKLQFDLVLLDPPYAKQEIVSQLEKMLERQLLTNEAVIVCETDKTVKLPETIGTLKKTRETVYGITQVTIYRQEA”, for which the protein production entry is “not failed”.

In the case of “MRVLFIGDVFGQPGRRVLQNHLPTIRPQFDFVIVNMENSAGGFGMHRDAARGALEAGAGCLTLGNHAWHHKDIYPMLSEDTYPIVRPLNYADPGTPGVGWRTFDVNGEKLTVVNLLGRVFMEAVDNPFRTMDALLERDDLGTVFVDFHAEATSEKEAMGWHLAGRVAAVIGTHTHVPTADTRILKGGTAYQTDAGFTGPHDSIIGSAIEGPLQRFLTERPHRYGVAEGRAELNGVALHFEGGKATAAERYRFIED”, the protein production entry is given as “not failed”.
